{"source": "IntAct's records for PubMed 24636949", "parents": {"B1": {"name": "Unconventional myosin-Ic (Homo sapiens), O00159-2 (parent)", "chain": "MESALTARDRVGVQDFVLLENFTSEAAFIENLRRRFRENLIYTYIGPVLVSVNPYRDLQIYSRQHMERYRGVSFYEVPPHLFAVADTVYRALRTERRDQAVMISGESGAGKTEATKRLLQFYAETCPAPERGGAVRDRLLQSNPVLEAFGNAKTLRNDNSSRFGKYMDVQFDFKGAPVGGHILSYLLEKSRVVHQNHGERNFHIFYQLLEGGEEETLRRLGLERNPQSYLYLVKGQCAKVSSINDKSDWKVVRKALTVIDFTEDEVEDLLSIVASVLHLGNIHFAANEESNAQVTTENQLKYLTRLLSVEGSTLREALTHRKIIAKGEELLSPLNLEQAAYARDALAKAVYSRTFTWLVGKINRSLASKDVESPSWRSTTVLGLLDIYGFEVFQHNSFEQFCINYCNEKLQQLFIELTLKSEQEEYEAEGIAWEPVQYFNNKIICDLVEEKFKGIISILDEECLRPGEATDLTFLEKLEDTVKHHPHFLTHKLADQRTRKSLGRGEFRLLHYAGEVTYSVTGFLDKNNDLLFRNLKETMCSSKNPIMSQCFDRSELSDKKRPETVATQFKMSLLQLVEILQSKEPAYVRCIKPNDAKQPGRFDEVLIRHQVKYLGLLENLRVRRAGFAYRRKYEAFLQRYKSLCPETWPTWAGRPQDGVAVLVRHLGYKPEEYKMGRTKIFIRFPKTLFATEDALEVRRQSLATKIQAAWRGFHWRQKFLRVKRSAICIQSWWRGTLGRRKAAKRKWAAQTIRRLIRGFVLRHAPRCPENAFFLDHVRTSFLLNLRRQLPQNVLDTSWPTPPPALREASELLRELCIKNMVWKYCRSISPEWKQQLQQKAVASEIFKGKKDNYPQSVPRLFISTRLGTDEISPRVLQALGSEPIQYAVPVVKYDRKGYKPRSRQLLLTPNAVVIVEDAKVKQRIDYANLTGISVSSLSDSLFVLHVQRADNKQKGDVVLQSDHVIETLTKTALSANRVNSININQGSITFAGGPGRDGTIDFTPGSELLITKAKNGHLAVVAPRLNSR"}}}
{"variants_of": "B1", "settings": "with 1433b_human YWHAB"}
{"variant": "S701E", "effect of a mutation on the interaction": "increasing interaction strength"}
{"variant": "S701A", "effect of a mutation on the interaction": "disrupting interaction strength"}
